Measurements as given in article PMC4072699, “A Remorin Gene SiREM6, the Target Gene of SiARDP, from Foxtail Millet (Setaria italica) Promotes High Salt Tolerance in Transgenic Arabidopsis”.
Where a chain is given by its changes, count along the chain named.

Key:
SiAREB1 = molecular target: T1, SiAREB1 (Setaria italica, UniProt K3YTM2 1-357); assay: EMSA; LightShift Chemiluminescent EMSA Kit (Thermo), manufacturer's protocol; buffer, salt, pH and temperature not stated; settings: protein: recombinant; chain copies: 2; label: biotin
T1 sequence: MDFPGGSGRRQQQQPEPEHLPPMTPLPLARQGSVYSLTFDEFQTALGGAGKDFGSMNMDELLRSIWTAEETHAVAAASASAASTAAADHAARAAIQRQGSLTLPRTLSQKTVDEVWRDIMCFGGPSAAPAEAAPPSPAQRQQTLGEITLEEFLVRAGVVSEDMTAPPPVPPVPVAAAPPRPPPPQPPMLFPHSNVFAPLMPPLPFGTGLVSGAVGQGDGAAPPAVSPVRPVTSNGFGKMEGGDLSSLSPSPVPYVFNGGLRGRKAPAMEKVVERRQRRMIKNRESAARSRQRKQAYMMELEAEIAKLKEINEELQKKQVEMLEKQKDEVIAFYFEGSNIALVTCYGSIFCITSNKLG

SiARDP [1] = molecular target: T2, SiARDP (Setaria italica, UniProt K3Z7V1 1-332); assay: as above; settings: protein: recombinant; label: biotin
T2 sequence (K3Z7V1 entry or part of it): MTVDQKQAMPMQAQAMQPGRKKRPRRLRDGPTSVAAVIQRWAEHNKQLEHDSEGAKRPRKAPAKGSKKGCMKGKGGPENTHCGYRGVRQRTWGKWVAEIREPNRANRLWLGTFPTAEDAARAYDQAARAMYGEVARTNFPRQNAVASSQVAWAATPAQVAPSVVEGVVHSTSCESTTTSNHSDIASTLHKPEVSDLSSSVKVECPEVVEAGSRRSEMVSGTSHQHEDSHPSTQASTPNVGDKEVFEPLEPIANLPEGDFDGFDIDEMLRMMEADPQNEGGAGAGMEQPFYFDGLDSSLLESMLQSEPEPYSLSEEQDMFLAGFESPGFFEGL

SiARDP [2] = molecular target: T2, SiARDP; assay: competition; versus labeled P1; LightShift Chemiluminescent EMSA Kit (Thermo), manufacturer's protocol; buffer, salt, pH and temperature not stated; settings: protein: recombinant
SiARDP [3] = molecular target: T2, SiARDP; assay: competition; versus labeled P1; signal not obviously reduced; LightShift Chemiluminescent EMSA Kit (Thermo), manufacturer's protocol; buffer, salt, pH and temperature not stated; settings: protein: recombinant
SiARDP [4] = molecular target: T2, SiARDP; assay: competition; versus labeled P2; LightShift Chemiluminescent EMSA Kit (Thermo), manufacturer's protocol; buffer, salt, pH and temperature not stated; settings: protein: recombinant
SiARDP [5] = molecular target: T2, SiARDP; assay: competition; versus labeled P2; signal not obviously reduced; LightShift Chemiluminescent EMSA Kit (Thermo), manufacturer's protocol; buffer, salt, pH and temperature not stated; settings: protein: recombinant

B1: probe P1 (DRE1) (dsDNA)
DNA 1: GCGATGGTCCTCACCGACGACGCCGCCCGC
DNA 2: GCGGGCGGCGTCGTCGGTGAGGACCATCGC
binding result (SiAREB1): no binding
binding result (SiARDP [1]): binds

B2: probe P3 (ABRE) (dsDNA)
DNA 1: GCCGCGCGGGTACGTGCGAGCCCCGCGGTC
DNA 2: GACCGCGGGGCTCGCACGTACCCGCGCGGC
binding result (SiAREB1): no binding
binding result (SiARDP [1]): no binding

B3: probe P2 (DRE2) (dsDNA)
DNA 1: ATGGGTTCCTTGCCGACTCTTCTTTTAACC
DNA 2: GGTTAAAAGAAGAGTCGGCAAGGAACCCAT
binding result (SiAREB1): no binding

B4: competitor 1 (DRE1) (dsDNA)
DNA 1: B1 DNA 1
DNA 2: B1 DNA 2
binding result (SiARDP [2]): binds

B5: competitor 2 (mutant DRE1, ACCGAC to AAAAAC) (dsDNA)
DNA 1: B1 DNA 1 with C14A, C15A, G16A
DNA 2: B1 DNA 2 with C15T, G16T, G17T
binding result (SiARDP [3]): no binding

B6: competitor 3 (DRE2) (dsDNA)
DNA 1: B3 DNA 1
DNA 2: B3 DNA 2
binding result (SiARDP [4]): binds

B7: competitor 4 (mutant DRE2, GCCGAC to GAAAAA) (dsDNA)
DNA 1: ATGGGTTCCTTGAAAAATCTTCTTTTAACC
DNA 2: GGTTAAAAGAAGATTTTTCAAGGAACCCAT
binding result (SiARDP [5]): no binding
